Experimental data published in patent US20240100174A1, “PROTEIN-PEG INTERACTIONS THAT REDIRECT THE THERMAL UNFOLDING PATHWAY OF PEGYLATED HUMAN GALECTIN-3C” (UNIVERSITY OF FLORIDA RESEARCH FOUNDATION, INCORPORATED, priority 2022, published 2024).

Assay: Rotational correlation time from 15N T1/T2 NMR relaxation
Type: physicochemical
Conditions: 30° C.; error is 95% confidence interval
Experimental: NMR data were recorded for temperatures between 30° C. and 55° C., as noted in the main text, with a Broker Avance™ III spectrometer operating at 800 MHz, running Topspin™ version 3.6.3 and equipped with a 5 mm TXI cryoprobe. The temperature was calibrated using a standard sample of 4% methanol in d4-MeOH. 2D [^15N, ^1H]-HSQC spectra were recorded using a gradient sensitivity-enhanced pulse sequence (hsqcetf3gpsi) with 2048 points in the direct dimension, between 180 to 260 points in the indirect dimension and between 32 to 736 scans per experiment, depending on the final sample concentration to achieve similar signal-to-noise ratios for all data. The ^15N T1 and T2 relaxation measurements were acquired with 1D ^15N-edited HSQC-based experiments (hsqct1etf3gpsi3d and hsqct2etf3gpsi3d) with 2048 points and 512 scans per experiment. For T1 measurements, experiments were recorded with relaxation delays of 0.02, 0.05, 0.1, 0.2, 0.3, 0.4, 0.6, 0.8,1, 1.2 or 1.5 s. […]
The rotational correlation times τc of Gal3C[T243C] and Gal3C[T243C]-PEG was then determined from T1 and T2 using the following spectral density function (j(ω)) equations […]
To investigate whether PEG and Gal3C[T243C] behaved more as two independent domains within the conjugated protein or if they interacted more closely, the rotational correlation times (τc) for Gal3C[T243C] and Gal3C[T243C]-PEG at 30° C. were determined. […]

B1: Gal3C[T243C]: Gal3C variant with a single extrinsic cysteine at position 243; SEQ ID NO: 11 (protein)
chain: MAGPLIVPYNLPLPGGVVPRMLITILGTVKPNANRIALDFQRGNDVAFHFNPRFNENNRRVIVCNTKLDNNWGREERQSVFPFESGKPFKIQVLVEPDHFKVAVNDAHLLQYNHRVKKLNEISKLGISGDIDLTSASYCMILEHHHHHH
rotational correlation time (τc): 10.7 (±0.7) ns
